Experimental findings from article PMC2191820 are described below.

This data set has as its target T1, Ig/EBP-1 (C/EBP gamma) (mouse, UniProt P53568 1-150).
T1 sequence: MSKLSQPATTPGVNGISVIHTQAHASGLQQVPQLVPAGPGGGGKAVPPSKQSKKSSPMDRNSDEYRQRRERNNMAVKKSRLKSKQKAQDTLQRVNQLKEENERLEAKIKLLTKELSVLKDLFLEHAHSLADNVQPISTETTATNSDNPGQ
The experiment in a line: EMSA. For orientation: Mobility shift assays separate free from complexed probe on a gel.

B1: oligo A wt (dsDNA)
DNA 1: GATCCTGCCTTAGTCAACTTCCCAAGAACAGA
DNA 2: GATCTCTGTTCTTGGGAAGTTGACTAAGGCAG
In the case of B1, the binding result was “binds”.

B2: A mt13 (dsDNA)
DNA 1: GATCCTGCCCCTCGAGGTTCCCAAGAACAGA
DNA 2: GATCTCTGTTCTTGGGAACCTCGAGGGGCAG
Turning to B2, the binding result is given as “no binding”.
